Source: publication PMC10950897 (Nature Communications, 2024)
Values belong to the binder of their own block, whether it stands above or below them. Where no end group is shown, it is not given here. The star is where a group is joined. Biotin = O=C1N[C@H]2[C@H](CS[C@H]2CCCCC(=O)*)N1

Experiments:
His6-p97 WT [1] = target: T1, His6-p97 WT (human, UniProt P55072 1-806); assay: SPR; Biacore T200, 25 C, His6-p97 amine-coupled to CM5 chip (~400 RU), Strep-HA-VCF1 full-length as analyte up to 100 nM, PBS-P with 0.5 mM TCEP, 1:1 model; conditions: both partners purified
T1 construct: p97/VCP, human; from plasmid pET15b-His6-p97; hexamer by mass photometry (535 kDa); also called recombinant p97; purified p97; source: E. coli BL21(DE3), purified (Ni-NTA, Superose 6)

His6-p97 WT [2] = target: T1, His6-p97 WT; assay: pull-down; biotinylated VRM, VIM or VBM peptides immobilized on StrepTactin agarose, incubated with purified WT or mutant His6-p97, washed extensively in RIPA buffer, immunoblot; conditions: both partners purified

T1 sequence (P55072 whole entry): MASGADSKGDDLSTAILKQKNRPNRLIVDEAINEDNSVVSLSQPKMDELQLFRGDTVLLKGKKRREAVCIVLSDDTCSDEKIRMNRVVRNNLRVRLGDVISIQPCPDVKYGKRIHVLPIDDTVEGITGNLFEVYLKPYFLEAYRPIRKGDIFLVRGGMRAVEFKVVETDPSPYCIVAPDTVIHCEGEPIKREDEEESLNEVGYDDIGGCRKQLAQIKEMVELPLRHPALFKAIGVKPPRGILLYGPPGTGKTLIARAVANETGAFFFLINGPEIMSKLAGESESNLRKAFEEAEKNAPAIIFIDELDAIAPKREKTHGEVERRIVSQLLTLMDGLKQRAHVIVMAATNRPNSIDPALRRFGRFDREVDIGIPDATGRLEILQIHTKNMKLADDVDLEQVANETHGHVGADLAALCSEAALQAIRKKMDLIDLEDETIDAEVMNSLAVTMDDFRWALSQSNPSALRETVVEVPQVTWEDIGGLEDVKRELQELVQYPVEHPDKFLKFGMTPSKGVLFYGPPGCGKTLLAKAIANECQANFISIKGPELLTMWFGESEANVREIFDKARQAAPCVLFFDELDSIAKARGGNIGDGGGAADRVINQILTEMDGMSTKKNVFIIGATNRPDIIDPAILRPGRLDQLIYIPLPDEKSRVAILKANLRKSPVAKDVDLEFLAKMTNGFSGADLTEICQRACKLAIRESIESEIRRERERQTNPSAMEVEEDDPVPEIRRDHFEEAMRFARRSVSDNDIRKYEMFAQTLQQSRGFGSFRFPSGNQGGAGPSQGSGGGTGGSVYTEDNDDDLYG

Kd (His6-p97 WT [1]): ~10 nM
B1: Strep-HA-VCF1 WT (natural protein)
chain: not shown
notes: VCF1 (FAM104A), human, isoform 1, 186 amino acids; cDNA inserted into pcDNA5/FRT/TO/Strep-HA; also called recombinant VCF1; full-length VCF1; source: HEK293-EBNA1-6E, transfected, purified (Strep-Tactin, Superose 6)

binding result (His6-p97 WT [2]): binds
B2: VBM (ATXN3, aa275-295) peptide (peptide)
peptide: Biotin-NLTSEELRKRREAYFEKQQQK
notes: ATXN3 (ataxin-3), human, VBM motif, aa275-295; also called peptide spanning the VBM in ATXN3; source: synthetic peptide, bought: GenScript

binding result (His6-p97 WT [2]): binds
B3: VIM (SVIP, aa14-39) peptide (peptide)
peptide: Biotin-PTPDLEEKRAKLAEAAERRQKEAAS
notes: SVIP, human, VIM motif; also called peptide spanning the VIM in SVIP; source: synthetic peptide, bought: GenScript
